Consider 19 molecules from US20210395718A1, “NOVEL KETOSE 3-EPIMERASE” (NATIONAL UNIVERSITY CORPORATION KAGAWA UNIVERSITY, priority 2018, published 2021).

First the molecules themselves.
B1: Mutant enzyme Sequence information 3: mutant having Sequence 3 (SEQ ID NO: 3), 78.5% amino acid sequence identity to Sequence 1 (protein)
chain: MNIGCHGLVWTGTFDADGIRLAVEKTKQAGFDLIEFPLMDPFSFDVAAAQAALAEHGLAVSASLGLSDETDITSSDPAVVAAGEALLLRAVDVLAELGGTHFCGVIYSAMKKYMDPVTPEGLASSRRTIARVADHAAERGVSVSLEVVNRYETNVLNTARQALAYLGEVDRPNLGIHLDTYHMNIEESDMFAPVLDAAPALRYVHIGESHRGYLGTGTVDFDTFFKALGRIGYDGPIVFESFSSAVVAPDLSRMLGIWRNLWTDNDELGAHANAYIRDKLVAVDSIRLH
B2: Ketose 3-epimerase mutant 34: amino acid-substituted mutant of SEQ ID NO: 1 (protein)
chain: MKIGCHGLVWTGRFDAEGIRYSVQKTKEAGFDLIEFPLMDPFSFDVATAKSALAEHGLTASASLGLSEATDVSSEDPAIVKAGEELLNRALDVLAELGATDFCGVIYSAMKKYMEPATEQGLSNSKAVVGRVVDRAAGLGINVSLEVVNRYETNVLNTGRQALSYLSDVKRPNLGVHLDTYHMNIEESDMFSPVLDTAEALKYVHIGESHRGYLGTGSVDFDNFFKALGRIGYDGPVVFESFSSAVVAPDLSRMLGIWRNLWADNEELGAHANAFIRDKLTAIKTIELH
modifications: Arthrobacter histidinolovorans
B3: Ketose 3-epimerase mutant 36: amino acid-substituted mutant of SEQ ID NO: 1 (protein)
chain: B2 chain with L94V, V128A
modifications: Arthrobacter histidinolovorans
B4: Ketose 3-epimerase mutant 35: amino acid-substituted mutant of SEQ ID NO: 1 (protein)
chain: B2 chain with V128A, V132I
modifications: Arthrobacter histidinolovorans
B5: Ketose 3-epimerase mutant 4: amino acid-substituted mutant of SEQ ID NO: 1 (protein)
chain: B2 chain with T59S, A60V, V128A, A200V, S218N
modifications: Arthrobacter histidinolovorans
B6: Ketose 3-epimerase mutant 2: amino acid-substituted mutant of SEQ ID NO: 1 (protein)
chain: B2 chain with V128A, A200V, S218N
modifications: Arthrobacter histidinolovorans
B7: Ketose 3-epimerase mutant 6: amino acid-substituted mutant of SEQ ID NO: 1 (protein)
chain: B2 chain with V128A, S218N
modifications: Arthrobacter histidinolovorans
B8: Ketose 3-epimerase mutant 37: amino acid-substituted mutant of SEQ ID NO: 1 (protein)
chain: B2 chain with A109S, V128A
modifications: Arthrobacter histidinolovorans
B9: Ketose 3-epimerase mutant 3: amino acid-substituted mutant of SEQ ID NO: 1 (protein)
chain: B2 chain with D101E, V128A, V129I, A200V
modifications: Arthrobacter histidinolovorans
B10: Ketose 3-epimerase mutant 1: amino acid-substituted mutant of SEQ ID NO: 1 (protein)
chain: B2 chain with T59S, A60V, D101E, V128A, V129I, A200V, S218N
modifications: Arthrobacter histidinolovorans
B11: Ketose 3-epimerase mutant 5: amino acid-substituted mutant of SEQ ID NO: 1 (protein)
chain: B2 chain with T59S, A60V, V128A, V129I, A200V
modifications: Arthrobacter histidinolovorans

Changes are numbered by the printed parent chain.

Test system in the first data set: not listed separately
In words: Ketose 3-epimerase activity of crude enzyme (D-allulose to D-fructose, HPLC). The conditions noted are these: crude recombinant enzyme. In kind it is biochemical. On the procedure: The activity of an enzyme ketose 3-epimerase before purification was obtained by measuring the preparation amount of D-fructose with D-allulose as a substrate. More specifically, an enzymatic reaction solution composed of a 50 mM tris-HCl buffer (pH 7.5), 0.1 M D-allulose, an enzyme solution, and 2 mM magnesium chloride is reacted at 70° C. for 10 minutes. The reaction mixture is boiled for 2 minutes to terminate the reaction and the solution composition after the reaction is measured by HPLC. One unit of enzyme activity is defined as an enzyme amount that epimerizes D-allulose to prepare 1 μmol of D-fructose per minute under the above-described conditions. An enzyme unit for epimerization of D-fructose into D-allulose, which is a reverse reaction, is also measured under similar conditions and defined similarly.
For the measurement of the activity of a ketose 3-epimerase as a crude enzyme and a purified enzyme, an enzyme reaction was made by performing an experiment similar to Experiment 4. An enzyme reaction was made for 10 minutes under various conditions and an enzyme amount preparing 1 μmol of D-fructose from D-allulose per minute was defined as 1 unit. After the reaction, the reaction mixture was put in a boiling liquid for 3 minutes to terminate the reaction. After deionization treatment, the D-fructose thus prepared was measured by HPLC analysis. […]
As to B1, the “Total activity per 100 mL of culture liquid (optimum reaction temperature)” value turned out to be 1201 U.

Test system in a further data set: not listed separately
The data set can be described thus: Optimum reaction temperature / relative activity at various reaction temperatures. In kind it is biochemical. The conditions noted are these: crude recombinant enzyme; 10 min, 2 mM magnesium chloride, pH 7.5. On the procedure: For the measurement of the activity of a ketose 3-epimerase as a crude enzyme and a purified enzyme, an enzyme reaction was made by performing an experiment similar to Experiment 4. An enzyme reaction was made for 10 minutes under various conditions and an enzyme amount preparing 1 μmol of D-fructose from D-allulose per minute was defined as 1 unit. After the reaction, the reaction mixture was put in a boiling liquid for 3 minutes to terminate the reaction. After deionization treatment, the D-fructose thus prepared was measured by HPLC analysis.
Reaction conditions are shown in Table 1 under which the reaction was made at various temperatures within from 50 to 80° C. to find an optimum temperature.
B1: the “Optimum enzyme reaction temperature” value was determined as 70° ° C.

The same data set, now with this note: crude recombinant enzyme; activity at optimum temperature = 100.
In the case of B1, the “Relative activity at 60° C. (%)” value is 75.8%, the “Relative activity at 70° C. (%)” value was found to be 100.0% and the “Relative activity at 80° C. (%)” value came to 31.2%.

Test system in the next data set: not listed separately
In words: Thermal stability: residual activity after incubation at 60° C. for one hour. It is filed as biochemical. The conditions noted are these: crude recombinant enzyme; activity at 60° C. (10 min reaction) = 100; unit not given. A digest of the protocol: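 Crude recombinant enzyme held 1 h at 60 °C in 50 mM tris-HCl pH 7.5 with 2 mM MgCl2, chilled 10 min on ice, then residual activity measured by the standard method. Expressed relative to activity at 60 °C under the 10-min optimum-temperature reaction conditions, set as 100.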
Turning to B1, the “Residual activity after incubation at 60° C. for 1 hour” value turned out to be 38.2.

The same data set, now with this note: crude recombinant enzyme; after incubation at 60° C. for 1 hour.
On to B2, for which the “Residual activity (%)” value was found to be 57.2%.

B3: the “Residual activity (%)” value is 57.0%.

Take B4: the “Residual activity (%)” value came to 69.2%.

B5: the “Residual activity (%)” value is 123.2%.

With B6, the “Residual activity (%)” value was found to be 83.3%.

On to B7, for which the “Residual activity (%)” value worked out at 101.2%.

Turning to B8, the “Residual activity (%)” value came to 63.3%.

On to B9, for which the “Residual activity (%)” value is recorded as 94.5%.

In the case of B10, the “Residual activity (%)” value turned out to be 74.1%.

B11: the “Residual activity (%)” value was 85.1%.

Test system in a further data set: not listed separately
The data set can be described thus: Ketose 3-epimerase activity ratio (T70/T50) at reaction temperature of 70° C. to 50° C. In kind it is biochemical. To be noted: crude recombinant enzyme; ratio of activity at 70° C. to activity at 50° C., 10 min reaction. The method, boiled down:
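Crude recombinant enzyme activity measured at 70° C. and at 50° C. in 10-minute reactions under the optimum-temperature assay conditions. Value is the ratio of the two activities (T70/T50).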
On to B1, for which the T70/T50 is given as 2.11.

Regarding B2, the T70/T50 is listed as 1.38.

With B3, the T70/T50 is 1.30.

With B4, the T70/T50 is listed as 1.34.

Turning to B5, the T70/T50 is listed as 2.08.

As for B6, the T70/T50 is on record as 2.31.

For B7, the T70/T50 turned out to be 2.05.

Turning to B8, the T70/T50 was 1.07.

B9: the T70/T50 is reported as 2.11.

Take B10: the T70/T50 was 2.37.

On to B11, for which the T70/T50 was determined as 2.07.

The test system of another data set is ketose 3-epimerase (present enzyme, purified enzyme of wild strain). The data set can be described thus: Substrate specificity of ketose 3-epimerase using 8 kinds of ketohexoses. In kind it is biochemical, Arthrobacter histidinolovorans Y586-1 strain. To be noted: each substrate 0.1 M, phosphate buffer pH 8.0, 70° C., 10 min; epimerization activity for D-allulose = 100. On the procedure:
The substrate specificity of the present enzyme after purification was investigated using 8 kinds of ketohexoses. […] After a reaction at 70° C. for 10 minutes, the reaction mixture was analyzed by HPLC to measure a ketose produced by epimerization of each sugar.
Supposing that the epimerization activity for D-allulose is 100, the activity for each ketose is shown as a relative activity.
On to `O=C(CO)[C@H](O)[C@H](O)[C@H](O)CO` [D-allulose], for which the “Relative activity (%)” value came out at 100.0%.

For the molecule `O=C(CO)[C@@H](O)[C@H](O)[C@H](O)CO` [D-fructose], the “Relative activity (%)” value is recorded as 43.4%.

Take `O=C(CO)[C@H](O)[C@@H](O)[C@H](O)CO` [D-sorbose]: the “Relative activity (%)” value is on record as “trace”.

Regarding `O=C(CO)[C@@H](O)[C@@H](O)[C@H](O)CO` [D-tagatose], the “Relative activity (%)” value was 72.2%.

Turning to `O=C(CO)[C@@H](O)[C@@H](O)[C@@H](O)CO` [L-allulose], the “Relative activity (%)” value is given as 27.1%.

In the case of `O=C(CO)[C@H](O)[C@@H](O)[C@@H](O)CO` [L-fructose], the “Relative activity (%)” value was “trace”.

Consider `O=C(CO)[C@@H](O)[C@H](O)[C@@H](O)CO` [L-sorbose], for which the “Relative activity (%)” value is “trace”.

On to `O=C(CO)[C@H](O)[C@H](O)[C@@H](O)CO` [L-tagatose], for which the “Relative activity (%)” value is on record as 59.2%.
